Experimental data: patent US20170304442A1 (SORRENTO THERAPEUTICS, published 2017)
Positions count from the first letter of the chain named. Each block holds one binder with its values, some of them ahead of it.

Key:
[1] = biological target: T1, recombinant human WISP1/His (human, UniProt O95388 23-367); assay: ELISA screening
T1 construct: also called hWISP1; recombinant human WISP1 protein; not shown: His tag
T1 sequence (looked up): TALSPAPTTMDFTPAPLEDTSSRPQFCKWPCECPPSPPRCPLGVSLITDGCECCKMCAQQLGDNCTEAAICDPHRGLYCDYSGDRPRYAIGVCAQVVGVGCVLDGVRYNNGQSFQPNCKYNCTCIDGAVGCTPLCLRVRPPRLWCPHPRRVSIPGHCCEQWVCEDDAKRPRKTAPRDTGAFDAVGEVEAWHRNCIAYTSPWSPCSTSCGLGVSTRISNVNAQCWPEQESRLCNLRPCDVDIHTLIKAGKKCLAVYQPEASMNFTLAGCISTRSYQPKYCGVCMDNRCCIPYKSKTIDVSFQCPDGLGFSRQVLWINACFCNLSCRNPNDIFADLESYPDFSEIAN

[2] = biological target: T2, recombinant mouse WISP1/His (mouse, UniProt O54775 23-367); assay: ELISA screening
T2 construct: also called murine WISP1; mWISP1; not shown: His tag
T2 sequence (looked up): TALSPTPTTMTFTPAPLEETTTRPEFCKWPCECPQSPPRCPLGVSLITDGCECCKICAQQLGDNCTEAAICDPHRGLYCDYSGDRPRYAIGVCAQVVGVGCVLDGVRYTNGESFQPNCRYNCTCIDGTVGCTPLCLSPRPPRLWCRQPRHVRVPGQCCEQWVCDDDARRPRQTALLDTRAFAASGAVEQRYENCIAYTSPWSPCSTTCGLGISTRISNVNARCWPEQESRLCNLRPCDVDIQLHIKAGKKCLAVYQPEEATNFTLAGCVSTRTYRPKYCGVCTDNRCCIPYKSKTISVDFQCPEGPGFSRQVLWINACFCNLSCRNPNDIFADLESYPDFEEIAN

B1: WIr2A9 (antibody, V domains shown)
VH: QVQLVESGAEVKKPGASVKVSCKVSGYTLTELSMHWVRQAPGKGLEWMGGFDPEDGETIYAQKFQGRVTMTEDTSTDTAYMELSSLRSEDTAVYYCATGGSYYYGSGSYGSRPGYFDLWGRGTLVTVSS
VL: QSVLTQPASVSGSPGQSITISCTGTSSDVGSYNLVSWYQQHPGKAPKLMIYEGSKRPSGVPDRFSGSKSGNTASLSISGLQAEDEADYYCSSYTSSSTLVFGGGTKLTVL
notes: Fully human IgG; also called Wlr2A9
binding result [1]: binds | binding result [2]: binds

B2: WIr2A7 (antibody, V domains shown)
VH: QVQLVQSGAEVKKPGASVKVSCKVSGYTLTELSIYWVRQAPGKGLEWVGGFDPEDGETVYAQNFQGRVTMTEDTSTDTAYMELSSLRSEDTAVYYCATHTSYDKVWGRYRPSLAFDIWGQGTMVTVSS
VL: DIVMTQTPSSLSASVGDRVTITCQASQDISKYLNWYQQKPGKAPNLLIYDASNLETGVPSRFSGSGSGTDFTLTISSLQPEDIGTYYCQQDDNLPLTFGGGTKVEIK
notes: Fully human IgG; also called Wlr2A7
binding result [1]: binds | binding result [2]: binds

B3: WIr2B5 (antibody, V domains shown)
VH: EVQLVESGAEVKKPGASVKVSCKASGYTFTSYGISWVRQAPGQGLEWMGWISAYNGNTNYAQKLQGRVTMTTDTSTSTAYMELRSLRSDDTAVYYCARDWDSTSWENYYYGMDVWGQGTTVTVSS
VL: B2 VL with K31N, N45K, L73F, G84A, D91H, V104L
notes: Fully human IgG; also called Wlr2B5
binding result [1]: binds | binding result [2]: binds

B4: WI2D9 (antibody, V domains shown)
VH: EVQLVQSGAEVKRSGASVKVSCKLSGDTLTDLSIHWVRQAPGKGLEWMGGFDFEDGEIVYGDKFKGRVTVTEDPSTDTAYMDLKRLTFEDTAIYYCATIKDIPGRYYFDFWGQGTLVTVSS
VL: QSVVTQPPSVSGAPGQRVTISCTGSSSNIGAGYDVHWYQQLPGTAPKLLIYGNSNRPSGVPDRFSGSKSGTSASLAITGLQAEDEADYYCQSYDSSLSGSNWVFGGGTKLTVL
notes: Fully human IgG; also called Wl2D9
binding result [1]: binds | binding result [2]: binds

B5: WI1A5 (antibody, V domains shown)
VH: QVQLVQSGREMKKPGASMKVSCKASGYTFTKYGISWVRQAPGQGLEWMGWISADNGKTHYAQKLQGRVTMTTDTSTSTAYLELRRLRSDDTAVYFCANDGGYWGQGTLVTVSS
VL: QSVLTQPPSVSGAPGQRVTISCTGTSSNLGAGFPVYWYQQLPGKPPKVLIDGNNDRPSGVPDRVSGSKSDTSASLAITGLQAEDEADYYCLSYDSGLDGWVFGGGTKLTVL
notes: Fully human IgG; also called Wl1A5
binding result [1]: binds | binding result [2]: binds

B6: WIrF8 (antibody, V domains shown)
VH: EVQLLESGAEVKKPGASVKVSCRVPGYSLSELSMHWVRQAPGKGLEWMGGFDPEDGETIYAQKFQGRVTMTEDTSTDTAYMELSSLRSEDTAVYYCAASGGWEVHDAFDTWGQGTMVTVSS
VL: DIVMTQSPSSLSASVGDRVTITCRASQDISYYLAWYQQKPGKAPELLIYAGSSLQSGVPSRFSGSESGTDFTLTISSLQPEDVASYYCQQYKTAPYTFGQGTKLEIK
notes: Fully human IgG; also called WlrF8
binding result [1]: binds | binding result [2]: binds

B7: WIr1E2 (antibody, V domains shown)
VH: QMQLVQSGAEVKEPGSSVKVSCKASGDNSYPLNWVRQAPGQGLEWMGGIIPIFGTPNYAQKFEGRVTITADESTNTAYMEISSLRFEDTAMYYCAREGDGYNYSPLDYWGQGTLVTVSS
VL: QAVLTQPPSVSKGLRQTATLTCTGDSSNVGNQGAAWLQQHPGLPPKVLSYRNNSRPSGISERLFVSRSGNSASLTITGLQPEDEADYYCSAWDSSLGAWVFGGGTQLTVL
notes: Fully human IgG; also called Wlr1E2
binding result [1]: binds | binding result [2]: binds

B8: WIr1G10 (antibody, V domains shown)
VH: QVQLQQSGPGLVKPSQTLSLTCAISGDTVSSNSAAWNWIRQSPSRGLEWLGGTYYRSKWYNDYAVSVKSRITINPDTSKNQFSLQLNSVTPEDTAVYYCTRSAPAAFDYWGQGTLVTVSS
VL: QSVVTQPPSVSAAPGQKVTISCSGSTSNIGNNYVSWYQQLPGTAPKLLIYDNNKRPSGIPDRFSGSKSGTSATLGITGLQTGDEADYYCGTSDTSLSIYVFGTGTKVTVL
notes: Fully human IgG; also called Wlr1G10
binding result [1]: binds | binding result [2]: binds

B9: WIr2B12 (antibody, V domains shown)
VH: EVQLVQSGAEVKKPGASVKVSCKASGYTFTSYYMHWVRQAPGQGLEWMGIINPSGGSTSYAQKFQGRVTMTRDTSTSTAYMELSSLRSEDTAVYYCARDIDDYGDGVWGQGTMVTVSS
VL: B8 VL with V4L, T26S, G30A, K54E, S92W, T94G, I98A, Y99G, T103G, V107L
notes: Fully human IgG; also called Wlr2B12
binding result [1]: binds | binding result [2]: binds

B10: WIr2B8 (antibody, V domains shown)
VH: EVQLVQSGAEVKKPGSSVKVSCKASGGTFSSYAISWVRQAPGQGLEWMGGIIPIFGTANYAQKFQGRVTITADESTSTAYMELSSLRSEDTAVYYCARGQPFRDSSGYYWSYFDYWGQGTLVTVSS
VL: SYELTQPPSVSKDLRQTATLTCTGNSNNVGNQGAAWLQQHQGHPPKLLSDRNNNRPSGISERLSASRSENIASLTITGLQPEDEADYFCAAWDTSLNTFLFGGGTKLTVL
notes: Fully human IgG; also called Wlr2B8
binding result [1]: binds | binding result [2]: binds

B11: WIr2A6 (antibody, V domains shown)
VH: EVQLVQSGGGLVKPGGSLRLSCEASGFTVSSYYMNWIRQAPGKGLEWISSFTAEGSTYYADSVRGRFSISRDNAKNSLYLEMTRLRADDTAVYYCARDLDRRDWYGGYFDSWGQGTLVTVSS
VL: LPVLTQPPSVSGAPGQRLTISCTGSSSNIGAGYGVHWYQHLPGSAPKLLIYGNSNRPSGVTDRISGSKSGTSASLAITGLQTGDEADYYCAAWDSYLSGYVFGTGTKVTVL
notes: Fully human IgG; also called Wlr2A6
binding result [1]: binds | binding result [2]: binds

Now from value to binder:

binding result [1]: binds | binding result [2]: binds
B12: WIr1B11 (antibody, V domains shown)
VH: EVQLVQSGAEVKKPGASVKVSCKASGYTFTSYDINWVRQATGQGPEWLGWLNPGSGKTGNAQNFQGRVFMTWDTSKDTAYMEMSSLRSDDTAVYYCARNLDYWGQGTLVTVSS
VL: DIVMTQTPSSLSASVGDRVTITCRASQSISSYLNWYQQKPGKAPKLLIYAASSLQSGVPSRFSGSRSGTDFTLTITNVQPEDFATYYCLQAYDFPITFGQGTKVEIK
notes: Fully human IgG; also called Wlr1B11

binding result [1]: binds | binding result [2]: binds
B13: WIr2B11 (antibody, V domains shown)
VH: B12 VH
VL: AIQLTQSPSTLSASVGDRVTITCRASQSISSWLAWYQQKPGKAPKLLIYATSRLQSGVPSRFSGSGSGTDFTLTINSLQPEDFATYYCQQYKSYPVTFGPGTKVDIK
notes: Fully human IgG; also called Wlr2B11

binding result [1]: binds | binding result [2]: binds
B14: WIr1B6 (antibody, V domains shown)
VH: QVQLVESGGGLVQPGGSLRLSCAASGFTFDDYAMHWVRQAPGKGLEWVSGISWNSGSIGYADSVKGRFTISRDNAKNSLYLQMNSLRAEDTALYYCAKVRAAAGTGGDYFDYWGQGTLVTVSS
VL: LPVLTQPRSVSGSPGQSVTISCTGSSSDVGRSNFVSWYQQYPGKAPKLMIFDVNKRPSGVPDRFSGSKSGNTASLTISGLQADDEAEYYCSSYAGTWIFGGGTQLTVL
notes: Fully human IgG; also called Wlr1B6

binding result [1]: binds | binding result [2]: binds
B15: WIr1G5 (antibody, V domains shown)
VH: QVQLVESGGGLIQPGGSLRLSCAASGFTVSSNYMSWVRQAPGKGLEWVSVIYSGGSTYYADSVKGRFTISRDNSKNTLYLQMNSLRAEDTAVYYCARFSGWNAFDIWGQGTMVTVSS
VL: DIVMTQTPSTLSASVGDRVTITCRASQSISSWLAWYQQKPGKAPKLLIYKASSLESGVPSRFSGSGSGTDFTLTISSLRPEDFATYYCQHSSTFGQGTRLEIK
notes: Fully human IgG; also called Wlr1G5

binding result [1]: binds | binding result [2]: binds
B16: WI1E6 (antibody, V domains shown)
VH: EVQLLESGGGVVQPGRSLRLSCAASGFTFSSYGMHWVRQAPGKGLEWVAVIWYDGSNKYYADSVKGRFTISRDNSKNTLYLQMNSLRAEDTAVYYCARGSAFNIWGQGTMVTVSS
VL: QAVVTQPASVSGSPGQSITISCIGTSSDVGGYNYVSWYQQHPGKAPKLMIYDVSNRPSGVSNRFSGSKSGNTASLTISGLQAEDEADYYCSSYTTSNTFVFGTGTKVTVL
notes: Fully human IgG; also called Wl1E6

binding result [1]: binds | binding result [2]: binds
B17: WI1A6 (antibody, V domains shown)
VH: B16 VH
VL: LPVLTQPASVSGSPGQSITITCTGTSSDVGAYNYVSWYQQRPGKAPKLMIYDVSKRPSGVSNRFSGSKSGNTASLTISGLQAEDEADYYCSSYTSSSTYVVFGGGTKLTVL
notes: Fully human IgG; also called Wl1A6

binding result [1]: binds | binding result [2]: binds
B18: WIr2A2 (antibody, V domains shown)
VH: EVQLVQSGAEVKKPGASVKVSCKVSGYTLTELSMHWVRQAPGKGLEWMGGFDPEDGETIYAQKFQGRVTMTEDTSTDTAYMELSSLRSEDTAVYYCATFMFDHDWFQLDPWGQGTLVTVSS
VL: QSALTQPPSASGTPGQRVTIACSGSSSNIGTNTVNWYQQLPGTAPKLLIYNNNQRPSGVPDRFSGSKSGTSASLAITGLQAEDEADYYCQSYDRSLSGYVFGSGTKLTVL
notes: Fully human IgG; also called Wlr2A2
